In patent publication US20240092919A1:

Experiments:
[1] = molecular target: Human T cell receptor on human primary T cells (human) (UniProt P01848); assay: cell-based or functional assay
[2] = molecular target: Cynomolgus T cell receptor on cynomolgus primary T cells (cynomolgus monkey); assay: cell-based or functional assay

Chain of Human T cell receptor on human primary T cells (human) (P01848 whole entry, chain 1 of 2): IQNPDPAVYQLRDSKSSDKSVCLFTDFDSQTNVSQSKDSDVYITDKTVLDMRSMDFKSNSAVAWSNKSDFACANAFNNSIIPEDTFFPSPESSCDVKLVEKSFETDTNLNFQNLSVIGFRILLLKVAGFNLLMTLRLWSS
Chain of Human T cell receptor on human primary T cells (human) (P01850 whole entry, chain 2 of 2, further chain): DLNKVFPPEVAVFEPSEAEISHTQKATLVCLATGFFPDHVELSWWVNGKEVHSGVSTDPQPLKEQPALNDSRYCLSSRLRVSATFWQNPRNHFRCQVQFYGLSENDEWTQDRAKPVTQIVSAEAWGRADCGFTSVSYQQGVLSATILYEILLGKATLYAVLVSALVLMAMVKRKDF

B1: T017000675 (bispecific antibody)
chain: DVQLVESGGGLVQAGGPLRLSCAASGRTFSSYVMGWFRQAPGKEREFVAAIYWSNGKTQYTDSVKGRFTISGDNAKNTVYLQMNSLNPEDTAVYYCVADKDETGFRTLPIAYDYWGQGTLVTVSSGGGGSGGGGSGGGGSGGGGSGGGGSGGGGSGGGGSEVQLVESGGGLVQAGGSLRLSCAASGITSKINDMGWYRQTPGNYREWVASITATGTTNYRDSVKGRFTISRDNAKSTVYLQMNSLKPEDTTVYYCNTFPPISNFWGQGTLVTVSSGGGGSGGGGSGGGGSGGGGSGGGGSGGGGSGGGGSEVQLVESGGGVVQPGGSLRLSCVASGYVHKINFYGWYRQAPGKEREKVAHISIGDQTDYADSAKGRFTISRDESKNTVYLQMNSLRPEDTALYYCRALSRIWPYDYWGQGTLVTVSSA
- % lysis, KG-1a, Human T cell mediated killing [1]: 46%
- % lysis, MOLM-13, Human T cell mediated killing [1]: 23%
- Average EC50 (M), KG-1a, Human T cell mediated killing [1]: 9.2e-11 M
- Average EC50 (M), MOLM-13, Human T cell mediated killing [1]: 3.4e-11 M
- IC50 (M), xCELLigence cell killing, Human T cell mediated killing, E:T 15:1 [1]: 5e-11 M
- % lysis, KG-1a, Cynomolgus T cell mediated killing [2]: 26%
- % lysis, MOLM-13, Cynomolgus T cell mediated killing [2]: 31%
- Average EC50 (M), KG-1a, Cynomolgus T cell mediated killing [2]: 2.6e-11 M
- Average EC50 (M), MOLM-13, Cynomolgus T cell mediated killing [2]: 6.9e-11 M

B2: T017000677 (bispecific antibody)
chain: DVQLVESGGGLVQAGGPLRLSCAASGRTFSSYVMGWFRQAPGKEREFVAAIYWSNGKTQYTDSVKGRFTISGDNAKNTVYLQMNSLNPEDTAVYYCVADKDETGFRTLPIAYDYWGQGTLVTVSSGGGGSGGGGSGGGGSGGGGSGGGGSGGGGSGGGGSEVQLVESGGGVVQPGGSLRLSCVASGYVHKINFYGWYRQAPGKEREKVAHISIGDQTDYADSAKGRFTISRDESKNTVYLQMNSLRPEDTALYYCRALSRIWPYDYWGQGTLVTVSSGGGGSGGGGSGGGGSGGGGSGGGGSGGGGSGGGGSEVQLVESGGGLVQAGGSLRLSCAASGITSKINDMGWYRQTPGNYREWVASITATGTTNYRDSVKGRFTISRDNAKSTVYLQMNSLKPEDTTVYYCNTFPPISNFWGQGTLVTVSSA
- % lysis, KG-1a, Human T cell mediated killing [1]: 65%
- % lysis, MOLM-13, Human T cell mediated killing [1]: 20%
- Average EC50 (M), KG-1a, Human T cell mediated killing [1]: 1.5e-11 M
- Average EC50 (M), MOLM-13, Human T cell mediated killing [1]: 1.2e-11 M
- % lysis, MOLM-13, Cynomolgus T cell mediated killing [2]: 54%
- Average EC50 (M), MOLM-13, Cynomolgus T cell mediated killing [2]: 5.1e-12 M

B3: T017000670 (bispecific antibody)
chain: DVQLVESGGGVVQPGGSLRLSCVASGYVHKINFYGWYRQAPGKEREKVAHISIGDQTDYADSAKGRFTISRDESKNTVYLQMNSLRPEDTALYYCRALSRIWPYDYWGQGTLVTVSSGGGGSGGGGSGGGGSGGGGSGGGGSGGGGSGGGGSEVQLVESGGGLVQAGGPLRLSCAASGRTFSSYVMGWFRQAPGKEREFVAAIYWSNGKTQYTDSVKGRFTISGDNAKNTVYLQMNSLNPEDTAVYYCVADKDETGFRTLPIAYDYWGQGTLVTVSSGGGGSGGGGSGGGGSGGGGSGGGGSGGGGSGGGGSEVQLVESGGGLVQAGGSLRLSCAASGITSKINDMGWYRQTPGNYREWVASITATGTTNYRDSVKGRFTISRDNAKSTVYLQMNSLKPEDTTVYYCNTFPPISNFWGQGTLVTVSSA
- % lysis, KG-1a, Human T cell mediated killing [1]: 52%
- % lysis, MOLM-13, Human T cell mediated killing [1]: 26%
- Average EC50 (M), KG-1a, Human T cell mediated killing [1]: 7.4e-11 M
- Average EC50 (M), MOLM-13, Human T cell mediated killing [1]: 2.5e-11 M
- IC50 (M), xCELLigence cell killing, Human T cell mediated killing, E:T 15:1 [1]: 9.4e-11 M
- % lysis, KG-1a, Cynomolgus T cell mediated killing [2]: 30%
- % lysis, MOLM-13, Cynomolgus T cell mediated killing [2]: 34%
- Average EC50 (M), KG-1a, Cynomolgus T cell mediated killing [2]: 8.1e-12 M
- Average EC50 (M), MOLM-13, Cynomolgus T cell mediated killing [2]: 2e-11 M

B4: T017000676 (bispecific antibody)
chain: DVQLVESGGGLVQAGGSLRLSCAASGITSKINDMGWYRQTPGNYREWVASITATGTTNYRDSVKGRFTISRDNAKSTVYLQMNSLKPEDTTVYYCNTFPPISNFWGQGTLVTVSSGGGGSGGGGSGGGGSGGGGSGGGGSGGGGSGGGGSEVQLVESGGGLVQAGGPLRLSCAASGRTFSSYVMGWFRQAPGKEREFVAAIYWSNGKTQYTDSVKGRFTISGDNAKNTVYLQMNSLNPEDTAVYYCVADKDETGFRTLPIAYDYWGQGTLVTVSSGGGGSGGGGSGGGGSGGGGSGGGGSGGGGSGGGGSEVQLVESGGGVVQPGGSLRLSCVASGYVHKINFYGWYRQAPGKEREKVAHISIGDQTDYADSAKGRFTISRDESKNTVYLQMNSLRPEDTALYYCRALSRIWPYDYWGQGTLVTVSSA
- % lysis, KG-1a, Human T cell mediated killing [1]: 41%
- % lysis, MOLM-13, Human T cell mediated killing [1]: 25%
- Average EC50 (M), KG-1a, Human T cell mediated killing [1]: 8.2e-11 M
- Average EC50 (M), MOLM-13, Human T cell mediated killing [1]: 2.3e-11 M
- IC50 (M), xCELLigence cell killing, Human T cell mediated killing, E:T 15:1 [1]: 1.1e-10 M
- % lysis, KG-1a, Cynomolgus T cell mediated killing [2]: 28%
- % lysis, MOLM-13, Cynomolgus T cell mediated killing [2]: 26%
- Average EC50 (M), KG-1a, Cynomolgus T cell mediated killing [2]: 1.4e-11 M
- Average EC50 (M), MOLM-13, Cynomolgus T cell mediated killing [2]: 2e-11 M

B5: T017000671 (bispecific antibody)
chain: DVQLVESGGGLVQAGGSLRLSCAASGITSKINDMGWYRQTPGNYREWVASITATGTTNYRDSVKGRFTISRDNAKSTVYLQMNSLKPEDTTVYYCNTFPPISNFWGQGTLVTVSSGGGGSGGGGSGGGGSGGGGSGGGGSGGGGSGGGGSEVQLVESGGGVVQPGGSLRLSCVASGYVHKINFYGWYRQAPGKEREKVAHISIGDQTDYADSAKGRFTISRDESKNTVYLQMNSLRPEDTALYYCRALSRIWPYDYWGQGTLVTVSSGGGGSGGGGSGGGGSGGGGSGGGGSGGGGSGGGGSEVQLVESGGGLVQAGGPLRLSCAASGRTFSSYVMGWFRQAPGKEREFVAAIYWSNGKTQYTDSVKGRFTISGDNAKNTVYLQMNSLNPEDTAVYYCVADKDETGFRTLPIAYDYWGQGTLVTVSSA
- % lysis, KG-1a, Human T cell mediated killing [1]: 21%
- % lysis, MOLM-13, Human T cell mediated killing [1]: 14%
- Average EC50 (M), KG-1a, Human T cell mediated killing [1]: 1.5e-10 M
- Average EC50 (M), MOLM-13, Human T cell mediated killing [1]: 1.5e-10 M
- % lysis, MOLM-13, Cynomolgus T cell mediated killing [2]: 46%
- Average EC50 (M), MOLM-13, Cynomolgus T cell mediated killing [2]: 2.1e-11 M
